# Experiments:
# [1] = IP, p517 Western blot, IBMX/Fsk stimulation; settings: glycan gained; control: no OGT overexpression
# [2] = IP, p-Ser Western blot, IBMX/Fsk-treated HeLa; settings: glycan gained; control: no OGT overexpression
# [3] = IP of endogenous PLIN1, p517 Western blot; settings: glycan gained; control: WT mice
# [4] = Western blot of PLIN1 in iWAT; settings: glycan lost; control: WT mice
# [5] = p492/p517 immunofluorescence, IBMX/Fsk-treated primary eWAT adipocytes; settings: glycan lost; control: WT adipocytes
# [6] = p517 Western blot, fat of 6 h fasted mice; settings: glycan lost; control: WT mice
protein,measurement,setting,value
perilipin 1 (PLIN1): OGT overexpression (protein) parent chain: MSMNKGPTLLDGDLPEQENVLQRVLQLPVVSGTCECFQKTYNSTKEAHPLVASVCNAYEKGVQGASNLAAWSMEPVVRRLSTQFTAANELACRGLDHLEEKIPALQYPPEKIASELKGTISTRLRSARNSISVPIASTSDKVLGATLAGCELALGMAKETAEYAANTRVGRLASGGADLALGSIEKVVEFLLPPDKESAPSSGRQRTQKAPKAKPSLVRRVSTLANTLSRHTMQTTAWALKQGHSLAMWIPGVAPLSSLAQWGASAAMQVVSRRQSEVRVPWLHNLAASQDESHDDQTDTEGEETDDEEEEEESEAEENVLREVTALPNPRGLLGGVVHTVQNTLRNTISAVTWAPAAVLGTVGRILHLTPAQAVSSTKGRAMSLSDALKGVTDNVVDTVVHYVPLPRLSLMEPESEFRDIDNPSAEAERKGSGARPASPESTPRPGQPRGSLRSVRGLSAPSCPGLDDKTEASARPGFLAMPREKPARRVSDSFFRPSVMEPILGRAQYSQLRKKS,other: PLIN1 phosphorylation,[1],abolishes
same,other: PLIN1 phosphorylation,[2],decreases
perilipin 1 (PLIN1): OGT AKI (adipose rOGT knockin) (protein) parent chain: MSMNKGPTLLDGDLPEQENVLQRVLQLPVVSGTCECFQKTYNSTKEAHPLVASVCNAYEKGVQGASNLAAWSMEPVVRRLSTQFTAANELACRGLDHLEEKIPALQYPPEKIASELKGTISTRLRSARNSISVPIASTSDKVLGATLAGCELALGMAKETAEYAANTRVGRLASGGADLALGSIEKVVEFLLPPDKESAPSSGRQRTQKAPKAKPSLVRRVSTLANTLSRHTMQTTAWALKQGHSLAMWIPGVAPLSSLAQWGASAAMQVVSRRQSEVRVPWLHNLAASQDESHDDQTDTEGEETDDEEEEEESEAEENVLREVTALPNPRGLLGGVVHTVQNTLRNTISAVTWAPAAVLGTVGRILHLTPAQAVSSTKGRAMSLSDALKGVTDNVVDTVVHYVPLPRLSLMEPESEFRDIDNPSAEAERKGSGARPASPESTPRPGQPRGSLRSVRGLSAPSCPGLDDKTEASARPGFLAMPREKPARRVSDSFFRPSVMEPILGRAQYSQLRKKS,other: PLIN1 phosphorylation,[3],decreases
perilipin 1 (PLIN1): OGT AKO (protein) parent chain: MSMNKGPTLLDGDLPEQENVLQRVLQLPVVSGTCECFQKTYNSTKEAHPLVASVCNAYEKGVQGASNLAAWSMEPVVRRLSTQFTAANELACRGLDHLEEKIPALQYPPEKIASELKGTISTRLRSARNSISVPIASTSDKVLGATLAGCELALGMAKETAEYAANTRVGRLASGGADLALGSIEKVVEFLLPPDKESAPSSGRQRTQKAPKAKPSLVRRVSTLANTLSRHTMQTTAWALKQGHSLAMWIPGVAPLSSLAQWGASAAMQVVSRRQSEVRVPWLHNLAASQDESHDDQTDTEGEETDDEEEEEESEAEENVLREVTALPNPRGLLGGVVHTVQNTLRNTISAVTWAPAAVLGTVGRILHLTPAQAVSSTKGRAMSLSDALKGVTDNVVDTVVHYVPLPRLSLMEPESEFRDIDNPSAEAERKGSGARPASPESTPRPGQPRGSLRSVRGLSAPSCPGLDDKTEASARPGFLAMPREKPARRVSDSFFRPSVMEPILGRAQYSQLRKKS,expression_or_secretion,[4],no change
perilipin 1 (PLIN1): OGT knockout (protein) parent chain: MSMNKGPTLLDGDLPEQENVLQRVLQLPVVSGTCECFQKTYNSTKEAHPLVASVCNAYEKGVQGASNLAAWSMEPVVRRLSTQFTAANELACRGLDHLEEKIPALQYPPEKIASELKGTISTRLRSARNSISVPIASTSDKVLGATLAGCELALGMAKETAEYAANTRVGRLASGGADLALGSIEKVVEFLLPPDKESAPSSGRQRTQKAPKAKPSLVRRVSTLANTLSRHTMQTTAWALKQGHSLAMWIPGVAPLSSLAQWGASAAMQVVSRRQSEVRVPWLHNLAASQDESHDDQTDTEGEETDDEEEEEESEAEENVLREVTALPNPRGLLGGVVHTVQNTLRNTISAVTWAPAAVLGTVGRILHLTPAQAVSSTKGRAMSLSDALKGVTDNVVDTVVHYVPLPRLSLMEPESEFRDIDNPSAEAERKGSGARPASPESTPRPGQPRGSLRSVRGLSAPSCPGLDDKTEASARPGFLAMPREKPARRVSDSFFRPSVMEPILGRAQYSQLRKKS,other: PLIN1 phosphorylation,[5],increases
perilipin 1 (PLIN1): OGT AKO (iWAT) (protein) parent chain: MSMNKGPTLLDGDLPEQENVLQRVLQLPVVSGTCECFQKTYNSTKEAHPLVASVCNAYEKGVQGASNLAAWSMEPVVRRLSTQFTAANELACRGLDHLEEKIPALQYPPEKIASELKGTISTRLRSARNSISVPIASTSDKVLGATLAGCELALGMAKETAEYAANTRVGRLASGGADLALGSIEKVVEFLLPPDKESAPSSGRQRTQKAPKAKPSLVRRVSTLANTLSRHTMQTTAWALKQGHSLAMWIPGVAPLSSLAQWGASAAMQVVSRRQSEVRVPWLHNLAASQDESHDDQTDTEGEETDDEEEEEESEAEENVLREVTALPNPRGLLGGVVHTVQNTLRNTISAVTWAPAAVLGTVGRILHLTPAQAVSSTKGRAMSLSDALKGVTDNVVDTVVHYVPLPRLSLMEPESEFRDIDNPSAEAERKGSGARPASPESTPRPGQPRGSLRSVRGLSAPSCPGLDDKTEASARPGFLAMPREKPARRVSDSFFRPSVMEPILGRAQYSQLRKKS,other: PLIN1 phosphorylation,[6],no change
perilipin 1 (PLIN1): OGT AKO (eWAT) (protein) parent chain: MSMNKGPTLLDGDLPEQENVLQRVLQLPVVSGTCECFQKTYNSTKEAHPLVASVCNAYEKGVQGASNLAAWSMEPVVRRLSTQFTAANELACRGLDHLEEKIPALQYPPEKIASELKGTISTRLRSARNSISVPIASTSDKVLGATLAGCELALGMAKETAEYAANTRVGRLASGGADLALGSIEKVVEFLLPPDKESAPSSGRQRTQKAPKAKPSLVRRVSTLANTLSRHTMQTTAWALKQGHSLAMWIPGVAPLSSLAQWGASAAMQVVSRRQSEVRVPWLHNLAASQDESHDDQTDTEGEETDDEEEEEESEAEENVLREVTALPNPRGLLGGVVHTVQNTLRNTISAVTWAPAAVLGTVGRILHLTPAQAVSSTKGRAMSLSDALKGVTDNVVDTVVHYVPLPRLSLMEPESEFRDIDNPSAEAERKGSGARPASPESTPRPGQPRGSLRSVRGLSAPSCPGLDDKTEASARPGFLAMPREKPARRVSDSFFRPSVMEPILGRAQYSQLRKKS,other: PLIN1 phosphorylation,[6],increases

# From PMC6954210
